# Laboratory results published in paper PMC9352680, “A comprehensive thermodynamic model for RNA binding by the Saccharomyces cerevisiae Pumilio protein PUF4”.
# T1: PUF4 RNA-binding domain (Saccharomyces cerevisiae, UniProt P25339 537-888)
# T1 sequence: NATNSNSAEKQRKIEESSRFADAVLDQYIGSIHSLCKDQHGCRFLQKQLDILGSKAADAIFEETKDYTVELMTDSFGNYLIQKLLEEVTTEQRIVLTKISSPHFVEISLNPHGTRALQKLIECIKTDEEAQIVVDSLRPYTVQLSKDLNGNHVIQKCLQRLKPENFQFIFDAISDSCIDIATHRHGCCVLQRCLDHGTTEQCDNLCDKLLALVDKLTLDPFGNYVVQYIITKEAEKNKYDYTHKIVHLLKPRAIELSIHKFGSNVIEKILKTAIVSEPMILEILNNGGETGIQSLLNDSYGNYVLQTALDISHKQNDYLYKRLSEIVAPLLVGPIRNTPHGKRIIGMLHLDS
# Biological target: T1, PUF4 RNA-binding domain
# Assay: Mg; RNA-MaP; 20 mM Na-HEPES pH 7.4, 30 mM KOAc, 0.75 mM MgCl2, 0.1% Tween-20, 5% glycerol, 0.1 mg/mL BSA, 2 mM DTT; 25 C; 0.0125-409.6 nM protein
# Conditions: tags: N-His6-TEV cleaved; C-SNAP kept, Cy3B-labelled; label: tethered on chip by stalled RNA polymerase
row,Binder,Kd [nM]
1,UCUCUUUGUAGCGUCUCUCUU (ssRNA) [Ic_S1_P4E.1_K4.1_C4.1_H4.1_A4.1_[T5G]_[A6C]_[T7G]_F4.1_[A9C]_T4.1],1710
2,UCUCUUUGUAGCUCUUCUCUU (ssRNA) [Ic_S1_P4E.1_K4.1_C4.1_H4.1_A4.1_[T5G]_[A6C]_F4.1_[T8C]_[A9T]_T4.1],2020
3,UCUCUUUGUAUCGGUCUCUU (ssRNA) [Ic_S1_P3E.1_K3.1_C3.1_H3.1_A3.1_[A6C]_F3.1_[T7G]_[A8G]_T3.1],1940
4,UCUCUUUGUAGCACUUCUCUU (ssRNA) [Ic_S1_P4E.1_K4.1_C4.1_H4.1_A4.1_[T5G]_[A6C]_[T7A]_F4.1_[T8C]_[A9T]_T4.1],949
5,UCUCUUUGUAGCUUGUCUCUU (ssRNA) [Ic_S1_P4E.1_K4.1_C4.1_H4.1_A4.1_[T5G]_[A6C]_F4.1_[A9G]_T4.1],1590
6,UCUCUUUGUAGCCCGUCUCUU (ssRNA) [Ic_S1_P4E.1_K4.1_C4.1_H4.1_A4.1_[T5G]_[A6C]_[T7C]_F4.1_[T8C]_[A9G]_T4.1],> 2300
7,UCUCUUUGUAGCGUUUCUCUU (ssRNA) [Ic_S1_P4E.1_K4.1_C4.1_H4.1_A4.1_[T5G]_[A6C]_[T7G]_F4.1_[A9T]_T4.1],964
8,UCUCUUUGUAUAUAUCUCUU (ssRNA) [If_S1_P3E.1_K3.1_C3.1_H3.1_A3.1_F3.1_T3.1],4.91
9,UCUCUUUGUAUUGGUCUCUU (ssRNA) [Ic_S1_P3E.1_K3.1_C3.1_H3.1_A3.1_[A6T]_F3.1_[T7G]_[A8G]_T3.1],1360
10,UCUCUUUGUAUCCCUCUCUU (ssRNA) [Ic_S1_P3E.1_K3.1_C3.1_H3.1_A3.1_[A6C]_F3.1_[T7C]_[A8C]_T3.1],531
11,UCUCUUUGUAUAGCUCUCUU (ssRNA) [Ic_S1_P3E.1_K3.1_C3.1_H3.1_A3.1_F3.1_[T7G]_[A8C]_T3.1],82.1
12,UCUCUUUGUAGCGUGUCUCUU (ssRNA) [Ic_S1_P4E.1_K4.1_C4.1_H4.1_A4.1_[T5G]_[A6C]_[T7G]_F4.1_[A9G]_T4.1],2000
13,UCUCUUUGUAGCAUCUCUCUU (ssRNA) [Ic_S1_P4E.1_K4.1_C4.1_H4.1_A4.1_[T5G]_[A6C]_[T7A]_F4.1_[A9C]_T4.1],398
14,UCUCUUUGUAAAGUUCUCUU (ssRNA) [Ic_S1_P3E.1_K3.1_C3.1_H3.1_A3.1_[T5A]_F3.1_[T7G]_[A8T]_T3.1],135
15,UCUCUUUGUAUACGUCUCUU (ssRNA) [Ic_S1_P3E.1_K3.1_C3.1_H3.1_A3.1_F3.1_[T7C]_[A8G]_T3.1],82
16,UCUCUUUGUAGCACGUCUCUU (ssRNA) [Ic_S1_P4E.1_K4.1_C4.1_H4.1_A4.1_[T5G]_[A6C]_[T7A]_F4.1_[T8C]_[A9G]_T4.1],> 2300
17,UCUCUUUGUAUGACUCUCUU (ssRNA) [Ic_S1_P3E.1_K3.1_C3.1_H3.1_A3.1_[A6G]_F3.1_[T7A]_[A8C]_T3.1],1070
18,UCUCUUUGUAGCAAAUCUCUU (ssRNA) [Ic_S1_P4E.1_K4.1_C4.1_H4.1_A4.1_[T5G]_[A6C]_[T7A]_F4.1_[T8A]_T4.1],833
19,UCUCUUUGUAGCUUCUCUCUU (ssRNA) [Ic_S1_P4E.1_K4.1_C4.1_H4.1_A4.1_[T5G]_[A6C]_F4.1_[A9C]_T4.1],612
20,UCUCUUUGUAGCUGCUCUCUU (ssRNA) [Ic_S1_P4E.1_K4.1_C4.1_H4.1_A4.1_[T5G]_[A6C]_F4.1_[T8G]_[A9C]_T4.1],2070

row,Binder,Kd [nM]
1,UCUCUUUGUAUUGUUCUCUU (ssRNA) [Ic_S1_P3E.1_K3.1_C3.1_H3.1_A3.1_[A6T]_F3.1_[T7G]_[A8T]_T3.1],38.1
2,UCUCUUUGUAAAGCUCUCUU (ssRNA) [Ic_S1_P3E.1_K3.1_C3.1_H3.1_A3.1_[T5A]_F3.1_[T7G]_[A8C]_T3.1],1000
3,UCUCUUUGUAUGAUUCUCUU (ssRNA) [Ic_S1_P3E.1_K3.1_C3.1_H3.1_A3.1_[A6G]_F3.1_[T7A]_[A8T]_T3.1],42.2
4,UCUCUUUGUAUGCCUCUCUU (ssRNA) [Ic_S1_P3E.1_K3.1_C3.1_H3.1_A3.1_[A6G]_F3.1_[T7C]_[A8C]_T3.1],1720
5,UCUCUUUGUAGCAGUUCUCUU (ssRNA) [Ic_S1_P4E.1_K4.1_C4.1_H4.1_A4.1_[T5G]_[A6C]_[T7A]_F4.1_[T8G]_[A9T]_T4.1],1440
6,UCUCUUUGUAUUAGUCUCUU (ssRNA) [Ic_S1_P3E.1_K3.1_C3.1_H3.1_A3.1_[A6T]_F3.1_[T7A]_[A8G]_T3.1],349
7,UCUCUUUGUAUCCUUCUCUU (ssRNA) [Ic_S1_P3E.1_K3.1_C3.1_H3.1_A3.1_[A6C]_F3.1_[T7C]_[A8T]_T3.1],39.8
8,UCUCUUUGUAGCAUUUCUCUU (ssRNA) [Ic_S1_P4E.1_K4.1_C4.1_H4.1_A4.1_[T5G]_[A6C]_[T7A]_F4.1_[A9T]_T4.1],32.4
9,UCUCUUUGUAGCCAUUCUCUU (ssRNA) [Ic_S1_P4E.1_K4.1_C4.1_H4.1_A4.1_[T5G]_[A6C]_[T7C]_F4.1_[T8A]_[A9T]_T4.1],1890
10,UCUCUUUGUAGCCGGUCUCUU (ssRNA) [Ic_S1_P4E.1_K4.1_C4.1_H4.1_A4.1_[T5G]_[A6C]_[T7C]_F4.1_[T8G]_[A9G]_T4.1],> 2300
11,UCUCUUUGUAUGCUUCUCUU (ssRNA) [Ic_S1_P3E.1_K3.1_C3.1_H3.1_A3.1_[A6G]_F3.1_[T7C]_[A8T]_T3.1],434
12,UCUCUUUGUAGCCACUCUCUU (ssRNA) [Ic_S1_P4E.1_K4.1_C4.1_H4.1_A4.1_[T5G]_[A6C]_[T7C]_F4.1_[T8A]_[A9C]_T4.1],> 2300
13,UCUCUUUGUAUACCUCUCUU (ssRNA) [Ic_S1_P3E.1_K3.1_C3.1_H3.1_A3.1_F3.1_[T7C]_[A8C]_T3.1],48.9
14,UCUCUUUGUAUUCGUCUCUU (ssRNA) [Ic_S1_P3E.1_K3.1_C3.1_H3.1_A3.1_[A6T]_F3.1_[T7C]_[A8G]_T3.1],523
15,UCUCUUUGUAUUAUUCUCUU (ssRNA) [Ic_S1_P3E.1_K3.1_C3.1_H3.1_A3.1_[A6T]_F3.1_[T7A]_[A8T]_T3.1],14.5
16,Ia_S4_P5E.1_K5.1_C5.1_H5.1_A5.1_[A7C]_F5.1_T5.1 (ssRNA) RNA: UUUGACAACUGAUCGUUCUUUCUUGUAUUCUUAUUCUUUCUCGAUCAGUUGUCUUU,5.51
17,UCUCUUUGUAGCCUUUCUCUU (ssRNA) [Ic_S1_P4E.1_K4.1_C4.1_H4.1_A4.1_[T5G]_[A6C]_[T7C]_F4.1_[A9T]_T4.1],679
18,UCUCUUUGUAUCACUCUCUU (ssRNA) [Ic_S1_P3E.1_K3.1_C3.1_H3.1_A3.1_[A6C]_F3.1_[T7A]_[A8C]_T3.1],127
19,UCUCUUUGUAAACUUCUCUU (ssRNA) [Ic_S1_P3E.1_K3.1_C3.1_H3.1_A3.1_[T5A]_F3.1_[T7C]_[A8T]_T3.1],24
20,UCUCUUUGUAUUACUCUCUU (ssRNA) [Ic_S1_P3E.1_K3.1_C3.1_H3.1_A3.1_[A6T]_F3.1_[T7A]_[A8C]_T3.1],167

row,Binder,Kd [nM]
1,UCUCUUUGUAGCACAUCUCUU (ssRNA) [Ic_S1_P4E.1_K4.1_C4.1_H4.1_A4.1_[T5G]_[A6C]_[T7A]_F4.1_[T8C]_T4.1],1440
2,UCUCUUUGUAAAACUCUCUU (ssRNA) [Ic_S1_P3E.1_K3.1_C3.1_H3.1_A3.1_[T5A]_F3.1_[T7A]_[A8C]_T3.1],369
3,UCUCUUUGUAUCAGUCUCUU (ssRNA) [Ic_S1_P3E.1_K3.1_C3.1_H3.1_A3.1_[A6C]_F3.1_[T7A]_[A8G]_T3.1],483
4,UCUCUUUGUAGCCGUUCUCUU (ssRNA) [Ic_S1_P4E.1_K4.1_C4.1_H4.1_A4.1_[T5G]_[A6C]_[T7C]_F4.1_[T8G]_[A9T]_T4.1],> 2300
5,UCUCUUUGUAUUCUUCUCUU (ssRNA) [Ic_S1_P3E.1_K3.1_C3.1_H3.1_A3.1_[A6T]_F3.1_[T7C]_[A8T]_T3.1],32.5
6,UCUCUUUGUAGCCGAUCUCUU (ssRNA) [Ic_S1_P4E.1_K4.1_C4.1_H4.1_A4.1_[T5G]_[A6C]_[T7C]_F4.1_[T8G]_T4.1],> 2300
7,UCUCUUUGUAGCAAUUCUCUU (ssRNA) [Ic_S1_P4E.1_K4.1_C4.1_H4.1_A4.1_[T5G]_[A6C]_[T7A]_F4.1_[T8A]_[A9T]_T4.1],857
8,UCUCUUUGUAGCAGCUCUCUU (ssRNA) [Ic_S1_P4E.1_K4.1_C4.1_H4.1_A4.1_[T5G]_[A6C]_[T7A]_F4.1_[T8G]_[A9C]_T4.1],> 2300
9,UCUCUUUGUAGCAACUCUCUU (ssRNA) [Ic_S1_P4E.1_K4.1_C4.1_H4.1_A4.1_[T5G]_[A6C]_[T7A]_F4.1_[T8A]_[A9C]_T4.1],1210
10,UCUCUUUGUAAACCUCUCUU (ssRNA) [Ic_S1_P3E.1_K3.1_C3.1_H3.1_A3.1_[T5A]_F3.1_[T7C]_[A8C]_T3.1],568
11,UCUCUUUGUAGCCUAUCUCUU (ssRNA) [Ic_S1_P4E.1_K4.1_C4.1_H4.1_A4.1_[T5G]_[A6C]_[T7C]_F4.1_T4.1],34.3
12,UCUCUUUGUAGCCCUUCUCUU (ssRNA) [Ic_S1_P4E.1_K4.1_C4.1_H4.1_A4.1_[T5G]_[A6C]_[T7C]_F4.1_[T8C]_[A9T]_T4.1],> 2300
13,UCUCUUUGUAUAGUUCUCUU (ssRNA) [Ic_S1_P3E.1_K3.1_C3.1_H3.1_A3.1_F3.1_[T7G]_[A8T]_T3.1],11
14,UCUCUUUGUAUCGCUCUCUU (ssRNA) [Ic_S1_P3E.1_K3.1_C3.1_H3.1_A3.1_[A6C]_F3.1_[T7G]_[A8C]_T3.1],859
15,UCUCUUUGUAUCGUUCUCUU (ssRNA) [Ic_S1_P3E.1_K3.1_C3.1_H3.1_A3.1_[A6C]_F3.1_[T7G]_[A8T]_T3.1],326
16,UCUCUUUGUAUGGUUCUCUU (ssRNA) [Ic_S1_P3E.1_K3.1_C3.1_H3.1_A3.1_[A6G]_F3.1_[T7G]_[A8T]_T3.1],509
17,UCUCUUUGUAUGGCUCUCUU (ssRNA) [Ic_S1_P3E.1_K3.1_C3.1_H3.1_A3.1_[A6G]_F3.1_[T7G]_[A8C]_T3.1],1730
18,UCUCUUUGUAAAAGUCUCUU (ssRNA) [Ic_S1_P3E.1_K3.1_C3.1_H3.1_A3.1_[T5A]_F3.1_[T7A]_[A8G]_T3.1],822
19,UCUCUUUGUAUUCCUCUCUU (ssRNA) [Ic_S1_P3E.1_K3.1_C3.1_H3.1_A3.1_[A6T]_F3.1_[T7C]_[A8C]_T3.1],113
